{"source": "the RNAGym collection of RNA variant scans (doi:10.1073/pnas.2313332121)", "parents": {"B1": {"name": "TPR 5TU (parent)", "chain": "GGAUCUUCUCGAUCUAACAAAAAAGACAAAUCUGCCACAAAGCUUGAGAGCAUCUUCGGAUGCAGAGGCGGCAGCCUUCGGUGGCGCGAUAGCGCCAACGUUCUCAACUAUGACACGCAAAACGCGUGCUCCGUUGAAUGGAGUUUAUCAUG"}}, "note": "This sample holds only a part of the variants without activity.", "data": [{"variants_of": "B1", "test": "polymerase ribozyme fitness, log enrichment relative to wild type (log ratio); higher = more active; in vitro selection for triplet polymerase activity", "method_in_brief": "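Both subunits of a heterodimeric triplet polymerase ribozyme were given their own mutant library, built by PCR and transcribed. Each library was annealed with a biotinylated primer, the partner subunit and triplets, incubated frozen at −7 °C, and its extended constructs gel-excised, captured on streptavidin beads and amplified by RT-PCR, all in one round done in triplicate. Fitness is the logarithm of genotype enrichment relative to wild-type enrichment, with replicates averaged by inverse-variance weighting. That logarithm is base 2, and Illumina-sequenced genotypes needed ≥10 input reads and ≥1 read per output.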", "values": [{"variant": "G50A C57A U127A G143U", "polymerase ribozyme fitness (log ratio)": -4.04}, {"variant": "G50A U55G A97G U102G", "polymerase ribozyme fitness (log ratio)": -3.43}, {"variant": "G50C U56A G59C", "polymerase ribozyme fitness (log ratio)": -3.03}, {"variant": "A49G C54A C116G A121U", "polymerase ribozyme fitness (log ratio)": -2.34}, {"variant": "G50A C93A A97G C99U U109G", "polymerase ribozyme fitness (log ratio)": "≤ -4.2"}, {"variant": "A49C G65U G84U C96U A121U C125G", "polymerase ribozyme fitness (log ratio)": "≤ -4.2"}, {"variant": "A49C A115U", "polymerase ribozyme fitness (log ratio)": "≤ -4.2"}, {"variant": "G50U A52C A107G", "polymerase ribozyme fitness (log ratio)": "≤ -4.2"}, {"variant": "G50C C123U", "polymerase ribozyme fitness (log ratio)": -2.4}, {"variant": "A49U U55A A106G", "polymerase ribozyme fitness (log ratio)": -0.994}, {"variant": "G50U A150G", "polymerase ribozyme fitness (log ratio)": -2.11}, {"variant": "C51A C54G G59C G84A C116G", "polymerase ribozyme fitness (log ratio)": -3.63}, {"variant": "G50C A60G", "polymerase ribozyme fitness (log ratio)": -2.31}, {"variant": "A49C C116A G143C", "polymerase ribozyme fitness (log ratio)": "≤ -4.2"}, {"variant": "G48C A120C", "polymerase ribozyme fitness (log ratio)": -0.573}, {"variant": "A49G A66G G71C C87G C95G A120G G124C A142U", "polymerase ribozyme fitness (log ratio)": "≤ -4.2"}, {"variant": "A49C C54A U78C C85U", "polymerase ribozyme fitness (log ratio)": -3.91}, {"variant": "G48U C85U", "polymerase ribozyme fitness (log ratio)": -0.485}, {"variant": "G50U G74A C85U", "polymerase ribozyme fitness (log ratio)": -3.88}, {"variant": "A49G C51A U53C C87G", "polymerase ribozyme fitness (log ratio)": "≤ -4.2"}, {"variant": "A49C G59C A91U", "polymerase ribozyme fitness (log ratio)": "≤ -4.2"}, {"variant": "A49C C75G C87A", "polymerase ribozyme fitness (log ratio)": "≤ -4.2"}, {"variant": "A49U C96A", "polymerase ribozyme fitness (log ratio)": -3.45}, {"variant": "A49C A60G G67U C85U C93G A97G", "polymerase ribozyme fitness (log ratio)": "≤ -4.2"}, {"variant": "A49C G50U U78G C85U A97G U102G A107U A142C", "polymerase ribozyme fitness (log ratio)": "≤ -4.2"}, {"variant": "A49U C51U A147C", "polymerase ribozyme fitness (log ratio)": -0.373}, {"variant": "G50C C87U A113C C116A G143U U145C", "polymerase ribozyme fitness (log ratio)": "≤ -4.2"}, {"variant": "G50U G83A C95G A107G", "polymerase ribozyme fitness (log ratio)": "≤ -4.2"}, {"variant": "G48C G83U", "polymerase ribozyme fitness (log ratio)": -1.41}, {"variant": "A49U G58C G124U", "polymerase ribozyme fitness (log ratio)": -1.3}, {"variant": "C51A C85A", "polymerase ribozyme fitness (log ratio)": -2.75}, {"variant": "A49U C76A U77G C95G C96U C108U A142G", "polymerase ribozyme fitness (log ratio)": "≤ -4.2"}, {"variant": "G50U C87U", "polymerase ribozyme fitness (log ratio)": -1.51}, {"variant": "A49C A73G C93U U127A", "polymerase ribozyme fitness (log ratio)": "≤ -4.2"}, {"variant": "G50A U56A C87U G124A", "polymerase ribozyme fitness (log ratio)": -2.44}, {"variant": "A49G G50A G84A A97G", "polymerase ribozyme fitness (log ratio)": -3.11}, {"variant": "G48C U61A U77A C125U U144A", "polymerase ribozyme fitness (log ratio)": "≤ -4.2"}, {"variant": "G50U A91U", "polymerase ribozyme fitness (log ratio)": "≤ -4.2"}, {"variant": "G50U A91G", "polymerase ribozyme fitness (log ratio)": -2.52}, {"variant": "G50C G83C G88U U146A", "polymerase ribozyme fitness (log ratio)": "≤ -4.2"}, {"variant": "G50A C116A", "polymerase ribozyme fitness (log ratio)": -0.537}, {"variant": "A49C A64U C87A U104G G143A", "polymerase ribozyme fitness (log ratio)": "≤ -4.2"}, {"variant": "A49C A64U C75U C76U U135G", "polymerase ribozyme fitness (log ratio)": "≤ -4.2"}, {"variant": "A49G G58C", "polymerase ribozyme fitness (log ratio)": -0.689}, {"variant": "A49U A150U", "polymerase ribozyme fitness (log ratio)": -0.0151}, {"variant": "G50C G58A", "polymerase ribozyme fitness (log ratio)": -1.56}, {"variant": "A49U A73G G86C A97U", "polymerase ribozyme fitness (log ratio)": "≤ -4.2"}, {"variant": "G50C A52G U77A G128U A142U", "polymerase ribozyme fitness (log ratio)": "≤ -4.2"}, {"variant": "A47U U77C", "polymerase ribozyme fitness (log ratio)": -4.09}, {"variant": "G48C A64G G70U G94U U144G C149A", "polymerase ribozyme fitness (log ratio)": "≤ -4.2"}, {"variant": "G50C A73U G80A G81U C95A G100U U151C", "polymerase ribozyme fitness (log ratio)": "≤ -4.2"}, {"variant": "A49C U56A A64G C87U", "polymerase ribozyme fitness (log ratio)": "≤ -4.2"}, {"variant": "G48C U102G", "polymerase ribozyme fitness (log ratio)": -2.42}, {"variant": "G50C C87U G100A", "polymerase ribozyme fitness (log ratio)": "≤ -4.2"}, {"variant": "G48C A73U U101C U104A A115G G124U", "polymerase ribozyme fitness (log ratio)": "≤ -4.2"}, {"variant": "G50C U90A", "polymerase ribozyme fitness (log ratio)": "≤ -4.2"}, {"variant": "A49U A52G C96U C99G", "polymerase ribozyme fitness (log ratio)": "≤ -4.2"}, {"variant": "G50A G88U U127C", "polymerase ribozyme fitness (log ratio)": "≤ -4.2"}, {"variant": "G48C C118U", "polymerase ribozyme fitness (log ratio)": -0.625}, {"variant": "C51A A52C A64C C95U U101C A121C G133C U135G", "polymerase ribozyme fitness (log ratio)": "≤ -4.2"}, {"variant": "G48C G62C C108G A137U U146A", "polymerase ribozyme fitness (log ratio)": "≤ -4.2"}, {"variant": "G50U U78A", "polymerase ribozyme fitness (log ratio)": "≤ -4.2"}, {"variant": "A49U G84U A97C G126C A138G A150G", "polymerase ribozyme fitness (log ratio)": "≤ -4.2"}, {"variant": "G50C G71A C95U G117C G143A", "polymerase ribozyme fitness (log ratio)": "≤ -4.2"}, {"variant": "G48A U55A A119U G124U U144C", "polymerase ribozyme fitness (log ratio)": -1.13}, {"variant": "G50C A98G", "polymerase ribozyme fitness (log ratio)": -3.37}, {"variant": "C51A C75U A98U", "polymerase ribozyme fitness (log ratio)": -3.28}, {"variant": "A49G G88U C96G U144C U148C U151G", "polymerase ribozyme fitness (log ratio)": "≤ -4.2"}, {"variant": "G48C C51A C54A C63U G68A U77C G88A C96U A142G", "polymerase ribozyme fitness (log ratio)": "≤ -4.2"}, {"variant": "A49C U109G", "polymerase ribozyme fitness (log ratio)": "≤ -4.2"}, {"variant": "G48C C79A G86U C96U G124A", "polymerase ribozyme fitness (log ratio)": "≤ -4.2"}, {"variant": "G48A C125U", "polymerase ribozyme fitness (log ratio)": -0.97}, {"variant": "G50C A66G C96U U146G", "polymerase ribozyme fitness (log ratio)": "≤ -4.2"}, {"variant": "G50U C105U", "polymerase ribozyme fitness (log ratio)": 0.638}, {"variant": "G50C G71U A97U", "polymerase ribozyme fitness (log ratio)": "≤ -4.2"}, {"variant": "G50C A137C G141U", "polymerase ribozyme fitness (log ratio)": "≤ -4.2"}, {"variant": "G50C C87A C93A C99U A137U A138C", "polymerase ribozyme fitness (log ratio)": "≤ -4.2"}, {"variant": "G50C A89U G94U C96U A115G", "polymerase ribozyme fitness (log ratio)": "≤ -4.2"}, {"variant": "A49G U53A G59A A142U", "polymerase ribozyme fitness (log ratio)": -2.64}, {"variant": "A47U G84U", "polymerase ribozyme fitness (log ratio)": -1.78}, {"variant": "G50U G83A A97U A98U", "polymerase ribozyme fitness (log ratio)": 0.0748}, {"variant": "C51A A89C C93U G117U A137U A150C", "polymerase ribozyme fitness (log ratio)": "≤ -4.2"}, {"variant": "G48A A60G G83U G126U U134C", "polymerase ribozyme fitness (log ratio)": -3.58}]}]}
